For two substances, stoichiometry N and stoichiometry N (TssF per TssG) results are on record in publication PMC6300606.

The target of assay [1] is TssKSN (shoulder and neck domains of EAEC TssK, residues 1–315) (enteroaggregative Escherichia coli (EAEC)). Nature of the assay: cryo-EM structure; TssKSN–TssF–TssG complex co-expressed in E. coli and purified (Ni-NTA, Superose 6); 0.12 mg/ml in 20 mM Tris-HCl pH 7.8, 150 mM NaCl; single-particle cryoEM, 3.7 Å overall.
Assay [2] concerns the target TssG (EAEC, residues 64–366) (enteroaggregative Escherichia coli (EAEC)). The description is as above.

For the substance “TssKSN (shoulder and neck domains of EAEC TssK, residues 1–315) (domain or fragment)”, the stoichiometry N in assay [1] is 3.

“TssF (EAEC, full length) (natural protein)” displayed a stoichiometry N (TssF per TssG) in assay [2] of 2.
